Sequences and labels used below:
B1: Transcriptional regulator ERG, residues 117 to 197; numbered along this chain, P11308 (parent)
chain: NMTTNERRVIVPADPTLWSTDHVRQWLEWAVKEYGLPDVNILLFQNIDGKELCKMTKDDFQRLTPSYNADILLSHLHYLRE

This passage reports abundance fitness results from the Human Domainome abundance scans (Beltran et al. 2025).

± gives the uncertainty stated by the source.

In this series the parent is B1. Nature of the series: abundance fitness (aPCA) (normalised: wild type 0, dead -1); higher = more abundant; growth selection in yeast, the domain comes from the species named. Conditions: Homo sapiens.
Take NMTTNERRVIVPADPTLWSTDHVRQWLEWAVKEYGLPDQNILLFQNIDGKELCKMTKDDFQRLTPSYNADILLSHLHYLRE [V39Q]: the abundance fitness is -0.219 ± 0.063.
For the variant NMTTNERRVIVPADPTLWSTDHVRQWLEWAVKEYGLPDPNILLFQNIDGKELCKMTKDDFQRLTPSYNADILLSHLHYLRE [V39P], the abundance fitness was -0.295 ± 0.072.
The value for NMTTNERRVIVPADPTLWSTDHVRQWLEWAVKEYGLPDCNILLFQNIDGKELCKMTKDDFQRLTPSYNADILLSHLHYLRE [V39C] was 0.005 ± 0.053; that for NMTTNERRVIVPADPTLWSTDHVRQWLEWAVKEYGLPDNNILLFQNIDGKELCKMTKDDFQRLTPSYNADILLSHLHYLRE [V39N] was -0.144 ± 0.077.
With NMTTNERRVIVPADPTLWSTDHVRQWLEWAVKEYGLPDKNILLFQNIDGKELCKMTKDDFQRLTPSYNADILLSHLHYLRE [V39K] the figure was -0.242 ± 0.068; with NMTTNERRVIVPADPTLWSTDHVRQWLEWAVKEYGLPDANILLFQNIDGKELCKMTKDDFQRLTPSYNADILLSHLHYLRE [V39A], -0.169 ± 0.044; with NMTTNERRVIVPADPTLWSTDHVRQWLEWAVKEYGLPDMNILLFQNIDGKELCKMTKDDFQRLTPSYNADILLSHLHYLRE [V39M], -0.045 ± 0.052.
The value for NMTTNERRVIVPADPTLWSTDHVRQWLEWAVKEYGLPDLNILLFQNIDGKELCKMTKDDFQRLTPSYNADILLSHLHYLRE [V39L] was 0.066 ± 0.037.
As to NMTTNERRVIVPADPTLWSTDHVRQWLEWAVKEYGLPDSNILLFQNIDGKELCKMTKDDFQRLTPSYNADILLSHLHYLRE [V39S], the abundance fitness is -0.116 ± 0.046.
Consider NMTTNERRVIVPADPTLWSTDHVRQWLEWAVKEYGLPDWNILLFQNIDGKELCKMTKDDFQRLTPSYNADILLSHLHYLRE [V39W], for which the abundance fitness was -0.334 ± 0.05.
With NMTTNERRVIVPADPTLWSTDHVRQWLEWAVKEYGLPDFNILLFQNIDGKELCKMTKDDFQRLTPSYNADILLSHLHYLRE [V39F] the figure was 0.04 ± 0.074; with NMTTNERRVIVPADPTLWSTDHVRQWLEWAVKEYGLPDRNILLFQNIDGKELCKMTKDDFQRLTPSYNADILLSHLHYLRE [V39R], -0.278 ± 0.036.
The value for NMTTNERRVIVPADPTLWSTDHVRQWLEWAVKEYGLPDDNILLFQNIDGKELCKMTKDDFQRLTPSYNADILLSHLHYLRE [V39D] was -0.241 ± 0.072; that for NMTTNERRVIVPADPTLWSTDHVRQWLEWAVKEYGLPDTNILLFQNIDGKELCKMTKDDFQRLTPSYNADILLSHLHYLRE [V39T] was -0.002 ± 0.053.
NMTTNERRVIVPADPTLWSTDHVRQWLEWAVKEYGLPDINILLFQNIDGKELCKMTKDDFQRLTPSYNADILLSHLHYLRE [V39I]: the abundance fitness was 0.007 ± 0.064.
The value for NMTTNERRVIVPADPTLWSTDHVRQWLEWAVKEYGLPDYNILLFQNIDGKELCKMTKDDFQRLTPSYNADILLSHLHYLRE [V39Y] was -0.252 ± 0.088; that for NMTTNERRVIVPADPTLWSTDHVRQWLEWAVKEYGLPPVNILLFQNIDGKELCKMTKDDFQRLTPSYNADILLSHLHYLRE [D38P] was 0.046 ± 0.054; that for NMTTNERRVIVPADPTLWSTDHVRQWLEWAVKEYGLPWVNILLFQNIDGKELCKMTKDDFQRLTPSYNADILLSHLHYLRE [D38W] was -0.398 ± 0.056.
NMTTNERRVIVPADPTLWSTDHVRQWLEWAVKEYGLPLVNILLFQNIDGKELCKMTKDDFQRLTPSYNADILLSHLHYLRE [D38L]: the abundance fitness was -0.756 ± 0.083.
With NMTTNERRVIVPADPTLWSTDHVRQWLEWAVKEYGLPNVNILLFQNIDGKELCKMTKDDFQRLTPSYNADILLSHLHYLRE [D38N] the figure was -0.011 ± 0.076; with NMTTNERRVIVPADPTLWSTDHVRQWLEWAVKEYGLPEVNILLFQNIDGKELCKMTKDDFQRLTPSYNADILLSHLHYLRE [D38E], -0.094 ± 0.045.
The value for NMTTNERRVIVPADPTLWSTDHVRQWLEWAVKEYGLPVVNILLFQNIDGKELCKMTKDDFQRLTPSYNADILLSHLHYLRE [D38V] was -0.755 ± 0.078; that for NMTTNERRVIVPADPTLWSTDHVRQWLEWAVKEYGLPYVNILLFQNIDGKELCKMTKDDFQRLTPSYNADILLSHLHYLRE [D38Y] was -0.293 ± 0.088; that for NMTTNERRVIVPADPTLWSTDHVRQWLEWAVKEYGLPHVNILLFQNIDGKELCKMTKDDFQRLTPSYNADILLSHLHYLRE [D38H] was -0.049 ± 0.092.
The value for NMTTNERRVIVPADPTLWSTDHVRQWLEWAVKEYGLPTVNILLFQNIDGKELCKMTKDDFQRLTPSYNADILLSHLHYLRE [D38T] was -0.052 ± 0.05; that for NMTTNERRVIVPADPTLWSTDHVRQWLEWAVKEYGLPAVNILLFQNIDGKELCKMTKDDFQRLTPSYNADILLSHLHYLRE [D38A] was -0.217 ± 0.041.
Regarding NMTTNERRVIVPADPTLWSTDHVRQWLEWAVKEYGLPKVNILLFQNIDGKELCKMTKDDFQRLTPSYNADILLSHLHYLRE [D38K], the abundance fitness is -0.091 ± 0.056.
With NMTTNERRVIVPADPTLWSTDHVRQWLEWAVKEYGLPQVNILLFQNIDGKELCKMTKDDFQRLTPSYNADILLSHLHYLRE [D38Q], the abundance fitness was -0.067 ± 0.05.
Consider NMTTNERRVIVPADPTLWSTDHVRQWLEWAVKEYGLPMVNILLFQNIDGKELCKMTKDDFQRLTPSYNADILLSHLHYLRE [D38M], for which the abundance fitness was -0.317 ± 0.067.
Turning to NMTTNERRVIVPADPTLWSTDHVRQWLEWAVKEYGLPSVNILLFQNIDGKELCKMTKDDFQRLTPSYNADILLSHLHYLRE [D38S], the abundance fitness is -0.054 ± 0.043.
The value for NMTTNERRVIVPADPTLWSTDHVRQWLEWAVKEYGLPGVNILLFQNIDGKELCKMTKDDFQRLTPSYNADILLSHLHYLRE [D38G] was -0.004 ± 0.031.
The value for NMTTNERRVIVPADPTLWSTDHVRQWLEWAVKEYGLPCVNILLFQNIDGKELCKMTKDDFQRLTPSYNADILLSHLHYLRE [D38C] was -0.289 ± 0.085; that for NMTTNERRVIVPADPTLWSTDHVRQWLEWAVKEYGLPFVNILLFQNIDGKELCKMTKDDFQRLTPSYNADILLSHLHYLRE [D38F] was -0.541 ± 0.17.
With NMTTNERRVIVPADPTLWSTDHVRQWLEWAVKEYGLPRVNILLFQNIDGKELCKMTKDDFQRLTPSYNADILLSHLHYLRE [D38R] the figure was -0.146 ± 0.036.
